According to the Human Domainome abundance scans (Beltran et al. 2025):
± gives the uncertainty stated by the source.

B1: E3 ubiquitin-protein ligase TRIM36, residues 208 to 252; numbered along this chain, Q9NQ86 (parent)
chain: KILMCPEHETERINMYCELCRRPVCHLCKLGGNHANHRVTTMSSA

Variants of: B1
Experiment: abundance fitness (aPCA) (normalised: wild type 0, dead -1); higher = more abundant; growth selection in yeast, the domain comes from the species named
Conditions: Homo sapiens

Variant	abundance fitness
KILMCPEHETERINMYCELCRRPVCHLCKLGGNEANHRVTTMSSA [H34E]	-0.272 ± 0.055
KILMCPEHETERINMYCELCRRPVCHLCKLGGNMANHRVTTMSSA [H34M]	-0.431 ± 0.059
KILMCPEHETERINMYCELCRRPVCHLCKLGGNFANHRVTTMSSA [H34F]	-0.614 ± 0.19
KILMCPEHETERINMYCELCRRPVCHLCKLGGNWANHRVTTMSSA [H34W]	-0.733 ± 0.063
KILMCPEHETERINMYCELCRRPVCHLCKLGGNDANHRVTTMSSA [H34D]	-0.326 ± 0.066
KILMCPEHETERINMYCELCRRPVCHLCKLGGNPANHRVTTMSSA [H34P]	-0.391 ± 0.078
KILMCPEHETERINMYCELCRRPVCHLCKLGGNRANHRVTTMSSA [H34R]	-0.541 ± 0.048
KILMCPEHETERINMYCELCRRPVCHLCKLGGNHNNHRVTTMSSA [A35N]	-0.339 ± 0.12
KILMCPEHETERINMYCELCRRPVCHLCKLGGNHVNHRVTTMSSA [A35V]	-0.011 ± 0.05
KILMCPEHETERINMYCELCRRPVCHLCKLGGNHHNHRVTTMSSA [A35H]	-0.149 ± 0.098
KILMCPEHETERINMYCELCRRPVCHLCKLGGNHYNHRVTTMSSA [A35Y]	-0.137 ± 0.09
KILMCPEHETERINMYCELCRRPVCHLCKLGGNHPNHRVTTMSSA [A35P]	-0.182 ± 0.074
KILMCPEHETERINMYCELCRRPVCHLCKLGGNHLNHRVTTMSSA [A35L]	-0.091 ± 0.056
KILMCPEHETERINMYCELCRRPVCHLCKLGGNHWNHRVTTMSSA [A35W]	-0.309 ± 0.053
KILMCPEHETERINMYCELCRRPVCHLCKLGGNHRNHRVTTMSSA [A35R]	-0.129 ± 0.048
KILMCPEHETERINMYCELCRRPVCHLCKLGGNHINHRVTTMSSA [A35I]	0.255 ± 0.49
KILMCPEHETERINMYCELCRRPVCHLCKLGGNHENHRVTTMSSA [A35E]	0.009 ± 0.075
KILMCPEHETERINMYCELCRRPVCHLCKLGGNHKNHRVTTMSSA [A35K]	-0.078 ± 0.072
KILMCPEHETERINMYCELCRRPVCHLCKLGGNHDNHRVTTMSSA [A35D]	0.085 ± 0.098

Variant	abundance fitness
KILMCPEHETERINMYCELCRRPVCHLCKLGGNHQNHRVTTMSSA [A35Q]	-0.05 ± 0.07
KILMCPEHETERINMYCELCRRPVCHLCKLGGNHTNHRVTTMSSA [A35T]	-0.068 ± 0.056
KILMCPEHETERINMYCELCRRPVCHLCKLGGNHSNHRVTTMSSA [A35S]	-0.052 ± 0.054
KILMCPEHETERINMYCELCRRPVCHLCKLGGTHANHRVTTMSSA [N33T]	0.044 ± 0.052
KILMCPEHETERINMYCELCRRPVCHLCKLGGFHANHRVTTMSSA [N33F]	-0.125 ± 0.092
KILMCPEHETERINMYCELCRRPVCHLCKLGGGHANHRVTTMSSA [N33G]	0.028 ± 0.046
KILMCPEHETERINMYCELCRRPVCHLCKLGGDHANHRVTTMSSA [N33D]	0.007 ± 0.062
KILMCPEHETERINMYCELCRRPVCHLCKLGGMHANHRVTTMSSA [N33M]	-0.015 ± 0.064
KILMCPEHETERINMYCELCRRPVCHLCKLGGEHANHRVTTMSSA [N33E]	-0.003 ± 0.072
KILMCPEHETERINMYCELCRRPVCHLCKLGGIHANHRVTTMSSA [N33I]	-0.064 ± 0.072
KILMCPEHETERINMYCELCRRPVCHLCKLGGYHANHRVTTMSSA [N33Y]	-0.153 ± 0.066
KILMCPEHETERINMYCELCRRPVCHLCKLGGPHANHRVTTMSSA [N33P]	0.092 ± 0.057
KILMCPEHETERINMYCELCRRPVCHLCKLGGHHANHRVTTMSSA [N33H]	-0.046 ± 0.071
KILMCPEHETERINMYCELCRRPVCHLCKLGGVHANHRVTTMSSA [N33V]	0.039 ± 0.055
KILMCPEHETERINMYCELCRRPVCHLCKLGGAHANHRVTTMSSA [N33A]	0.071 ± 0.056
KILMCPEHETERINMYCELCRRPVCHLCKLGGKHANHRVTTMSSA [N33K]	0.016 ± 0.061
KILMCPEHETERINMYCELCRRPVCHLCKLGGQHANHRVTTMSSA [N33Q]	0.073 ± 0.06
KILMCPEHETERINMYCELCRRPVCHLCKLGGWHANHRVTTMSSA [N33W]	-0.178 ± 0.062
KILMCPEHETERINMYCELCRRPVCHLCKLGGLHANHRVTTMSSA [N33L]	-0.028 ± 0.048

Variant	abundance fitness
KILMCPEHETERINMYCELCRRPVCHLCKLGGSHANHRVTTMSSA [N33S]	0.036 ± 0.048
KILMCPEHETERINMYCELCRRPVCHLCKLGGRHANHRVTTMSSA [N33R]	-0.066 ± 0.052
KILMCPEHETERINMYCELCRRPVCHLCKLGRNHANHRVTTMSSA [G32R]	-0.138 ± 0.049
KILMCPEHETERINMYCELCRRPVCHLCKLGWNHANHRVTTMSSA [G32W]	-0.297 ± 0.058
KILMCPEHETERINMYCELCRRPVCHLCKLGDNHANHRVTTMSSA [G32D]	-0.003 ± 0.067
KILMCPEHETERINMYCELCRRPVCHLCKLGNNHANHRVTTMSSA [G32N]	-0.228 ± 0.08
KILMCPEHETERINMYCELCRRPVCHLCKLGTNHANHRVTTMSSA [G32T]	-0.07 ± 0.056
KILMCPEHETERINMYCELCRRPVCHLCKLGQNHANHRVTTMSSA [G32Q]	-0.036 ± 0.061
KILMCPEHETERINMYCELCRRPVCHLCKLGHNHANHRVTTMSSA [G32H]	-0.267 ± 0.11
KILMCPEHETERINMYCELCRRPVCHLCKLGCNHANHRVTTMSSA [G32C]	-0.132 ± 0.06
KILMCPEHETERINMYCELCRRPVCHLCKLGVNHANHRVTTMSSA [G32V]	-0.163 ± 0.064
KILMCPEHETERINMYCELCRRPVCHLCKLGPNHANHRVTTMSSA [G32P]	-0.015 ± 0.054
KILMCPEHETERINMYCELCRRPVCHLCKLGINHANHRVTTMSSA [G32I]	-0.276 ± 0.1
KILMCPEHETERINMYCELCRRPVCHLCKLGANHANHRVTTMSSA [G32A]	0.028 ± 0.053
KILMCPEHETERINMYCELCRRPVCHLCKLGKNHANHRVTTMSSA [G32K]	-0.129 ± 0.084
KILMCPEHETERINMYCELCRRPVCHLCKLGENHANHRVTTMSSA [G32E]	0.089 ± 0.052
KILMCPEHETERINMYCELCRRPVCHLCKLGSNHANHRVTTMSSA [G32S]	-0.045 ± 0.05
KILMCPEHETERINMYCELCRRPVCHLCKLGFNHANHRVTTMSSA [G32F]	-0.243 ± 0.12
KILMCPEHETERINMYCELCRRPVCHLCKLGLNHANHRVTTMSSA [G32L]	-0.144 ± 0.052
